Source: the domain aggregation screens of Martell et al. (2025)

Experiment: soluble fraction after stress (log2 fold change); higher = more stays soluble; pooled small domains, quantitative proteomics
Conditions: stress: pH 4
How it was run: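 Aggregation propensity is estimated from the fold change in each domain's soluble amount after acid stress. Pooled small-domain libraries were stressed at pH 4, and higher log2 values mean more stayed soluble.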

“HMENRREYQKAIDYLSDQIRAGTLTVGSRLPTERAIAEALGISRNSTREALRTMENMGMIESKQGSGHYLT” and “HMENTELIELRKKRNLSQSQLAELLDLTRNQIANYESGRRIPDQETKQIIAGFFEMPAEEIFAG” are within 0.2 log units of each other in “soluble fraction (log2)” value: -0.0814 for the first, -0.0656 for the second.

“HMENTFNENLRRIRKEKKITQEQLAEFVGVSPQAVSKWEMNSFPDASLLPKIAEKLEVSIDELFGLK” and “HMENTVVMPNLLGKTMTEAKIELKDLSISITLKGSENSSQYAAGQIISQSVDSGTRVAVGSSVEVTIAGS” are within 0.2 log units of each other in “soluble fraction (log2)” value: -0.225 for the first, -0.0377 for the second.

Compared with “HMENVIYGINGPVVTVRNSRSFSMMEMVFVGNERLVGEVIGITDKITTIQVYEETTGLRPGEPVYGTGSPM”, “HMENVRKTEWVTISNDKSQTRTTVYFESGNQKLDKHPQIQGFEYQRTYVEGGVKYYLFVEKGTKLDE” is higher in “soluble fraction (log2)” value: -0.842 for the first, 0.0865 for the second.

First: HMENYGEAITYIHGMIEDSSEKMLAASKALKVNANTLIKFMKDPYSVAAHIRDRIVENLANLEKAVKAI
Second: HMENYYMPVVAGQSEQDAKSMLNAMKLSLSIQVQEQESDSVAKGLAIGTSPAAGSQIRKGSSVILYISKGA
The “soluble fraction (log2)” value of the first is lower: -0.59 for the first, 0.16 for the second.

Compared with “HMEPALYRLFMAHPELNASAVARRLGIAQSLLAQYISGSKKPSPERERMILTEIHKIGEELATAS”, “HMEPAPPPAAPPADPELQKRIDKLVEYIGKNGPEFEAVIRDKQHDNPDYAFVFGGEGHAYYRYLLWLLPRP” is lower in “soluble fraction (log2)” value: 0.102 for the first, -0.287 for the second.

Going from “HMEPELLTTKQVASVMNIGEERARAILLSRGVQPVSLPWGKERKTLRWSRRAVMTVIDTLHAEAQAKAGV” to “HMEPLPDIPRGTRVSHQTAPADGDMPERRETGWTMTEPIRAQDGLAYVGVSVYGRGVVMLPVNSLSII”, the “soluble fraction (log2)” value falls from 0.18 to -0.557.

“HMEPSAQEIANKLLGHVKSLGLPITGLSISYNSTSDLATVRGQVQSQADREKIILAVGNVDHVAKVDDQLT” and “HMEPSQEFSLADMVAYDLTGYPKSAALRAAVGASLGIGYGNAKQFVYRLNHYGISKDDFHRAAQEALDGL” are within 0.2 log units of each other in “soluble fraction (log2)” value: -0.0387 for the first, 0.057 for the second.

Going from “HMEPTAEQLKAIRQFASVNGRSWKSELRYLWETGAYHRAALGGADPGYLQQVRNQFGPGWLRAFKISK” to “HMEPTPREIVVQQLGYRGLEVLGNAEYQFPKETQIIILKLAELISSGSVTETLEGGKLLALFRGVGINVR”, the “soluble fraction (log2)” value falls from -0.113 to -1.36.

“HMEPVQPVMYSEFIESVERGEVVEATIQGDKIIATDRSGNRYTVVGSAKDPQLVGQLLERNVAFKFVEE” and “HMEQAMIVILKENPDRRQLEFLTGWLQKQQIGIHISEGAHQTVLGLVGDATRLDIDMLKQMEIVEDVKRVQ” are within 0.2 log units of each other in “soluble fraction (log2)” value: -0.971 for the first, -0.953 for the second.

Compared with “HMEQGDTQQEIREKILNLLADGERHMITELKNIRTDQPIDDDKIVGKTLKTLLDEEEVYMDGSYIQLNG”, “HMEQIGSIIKDIRKKNNLTQNEFASILGVTFQAVSKWENDKSIPDITILKDISNKFNVDLNYLISG” is higher in “soluble fraction (log2)” value: -0.997 for the first, -0.48 for the second.

First: HMEQISVPIFTNDELVTFARSYSGELGYKIDDMAVLALYNRISNIQRLDQATTLTEVKDIVDEAVAKSE
Second: HMEQLESAVASRTLIGQAQGVIMERYGLSAPNAFSVLSRISQDSNTKLAEVAQQIVATRRIPG
The “soluble fraction (log2)” value of the first is lower: -0.63 for the first, 0.0508 for the second.

First: HMEQLNKNIKFDNFLESLNFINKVSEVAEEENHHPDLKFGWGYADITIFTHAIKGLSEGDFVLAAKIDVI
Second: HMEQMSLISKKKGERIDKFLGENLGDLSRSYIQKLLKDGLILVNGKKVKANYKLNEGDQIDVEVPDP
The “soluble fraction (log2)” value of the first is lower: -0.295 for the first, 0.407 for the second.

“HMEQMSPYPNPSKGKIQFHNQEPMDIKVFNSLGQIVFEQRILSRAILDLSRLSPGQYIVQAGEQKNIWIK” and “HMEQPPVPSVSITAALGSAVARRLAPHGFQKMPDLVDAYRAGKLAQISGIGGTTLDLIREWLTANARQQ” are within 0.2 log units of each other in “soluble fraction (log2)” value: -0.293 for the first, -0.189 for the second.

For “HMEQQEFIVPHDSEGQRLDLFLVSVLGTHSRSQIRKLIVNGHVKLENRAPRPNLPVRAGESVVVSMPEPT”, the “soluble fraction (log2)” value was -0.315.
